Among the data in the RNAGym collection of RNA variant scans (doi:10.1093/nar/gkz1192) are self-cleavage values, retold here.

B1: CPEB3 Ribozyme (parent)
chain: UAACAGGGGGCCACAGCAGAAGCGUUCACGUCGCAGCCCCUGUCAGAUUCUGGUGAAUCUGCGAAUUCUGCUGUAUAUCUC

The data set covers variants of B1. As to the kind of experiment: self-cleavage, relative activity (ratio to wild type); higher = more cleavage; in vitro, sequencing. The procedure, abridged:
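Relative activity was defined as the cleaved/total read fraction for a variant divided by the same fraction for the unmutated ribozyme. CPEB3 self-cleaving ribozyme libraries were made by rounds of error-prone PCR, barcoded, and transcribed in vitro with T7 RNA polymerase for 5 hours at 37°C, and cleavage ran through transcription plus a 15 min DNase I step before EDTA. Illumina sequencing of template-switched reverse transcripts gave the reads, and DNA sequencing mapped the barcodes. Averages come from three batches, using variants with at least 5 reads.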
With G6A C44U, the self-cleavage was found to be 0.46.

Regarding G6U U76A, the self-cleavage stood at 0.32.

Turning to G6U U76C, the self-cleavage was found to be 0.15.

With G6A A21U, the self-cleavage came to 0.31.

Take G6A A21G: the self-cleavage was found to be 0.49.

Consider G6C U48C, for which the self-cleavage was 0.47.

Consider A5U G52A, for which the self-cleavage came out at 1.1.

Turning to A5U G52U, the self-cleavage was determined as 1.15.

For the variant A5U G24A, the self-cleavage turned out to be 0.4.

Turning to A5U G24U, the self-cleavage was determined as 0.43.

In the case of A5U G24C, the self-cleavage was 0.36.

As for G6A A65U, the self-cleavage stood at 0.22.

For the variant G6A A65G, the self-cleavage came out at 0.16.

Take A5U G19A: the self-cleavage was 0.72.

As for A5U G30U, the self-cleavage worked out at 0.26.

Consider A5U G30C, for which the self-cleavage was determined as 0.4.

As to A5U G30A, the self-cleavage turned out to be 0.27.

For the variant G6U U66C, the self-cleavage stood at 0.2.

As to G6U U66A, the self-cleavage turned out to be 0.13.

Consider G6C U26A, for which the self-cleavage amounted to 0.47.

With A5U U49C, the self-cleavage is 0.55.

In the case of A5U U49A, the self-cleavage is 0.44.

G7A A47G: the self-cleavage turned out to be 0.09.

G6A C39A: the self-cleavage turned out to be 0.49.

For the variant G6U C29U, the self-cleavage came out at 0.25.

Take A5U G7A: the self-cleavage came out at 0.22.

Turning to A5U G7U, the self-cleavage came to 0.35.

For the variant A5U G7C, the self-cleavage is 0.48.

A5U G22A: the self-cleavage is 0.28.

On to G6U C11A, for which the self-cleavage amounted to 0.16.

For the variant A5U C71A, the self-cleavage turned out to be 0.48.

As to A5U C71U, the self-cleavage came to 0.79.

G6A U26C: the self-cleavage was determined as 0.2.

As for G6A U26A, the self-cleavage was determined as 0.19.

For the variant G6A C29U, the self-cleavage stood at 0.08.

As for G6A C29A, the self-cleavage was determined as 0.05.

In the case of G6C U67C, the self-cleavage was 0.3.

Turning to G6A C14U, the self-cleavage was 0.57.

As for A5U U60A, the self-cleavage is 0.76.

A5U U60C: the self-cleavage was 0.58.

For G6U C79A, the self-cleavage is 0.46.

G6U U31C: the self-cleavage came to 0.22.

Take G6U U31A: the self-cleavage was 0.17.

Consider G6C U51A, for which the self-cleavage came out at 0.38.

In the case of G6U U58C, the self-cleavage is 0.16.

Consider A5U G6A, for which the self-cleavage is 0.52.

In the case of G6U U74G, the self-cleavage was determined as 0.4.

Consider G6A C62U, for which the self-cleavage was 0.25.

Regarding G6A C62G, the self-cleavage was found to be 0.42.

Regarding G6A C62A, the self-cleavage is 0.16.

On to G6U U26A, for which the self-cleavage was determined as 0.13.

With G6U U26C, the self-cleavage was 0.38.

In the case of G7A A18G, the self-cleavage came to 0.25.

A5U U54C: the self-cleavage was found to be 1.09.

Regarding A5U U54A, the self-cleavage turned out to be 1.1.

Take A5U U66A: the self-cleavage was found to be 0.46.

For the variant A5U U66G, the self-cleavage worked out at 0.93.

A5U U66C: the self-cleavage worked out at 0.45.

Turning to G6A U76C, the self-cleavage turned out to be 0.27.

As for G6A U76G, the self-cleavage is 0.14.

Turning to G6C G53A, the self-cleavage stood at 0.59.

Regarding A5U G55U, the self-cleavage was 1.15.

On to G6U C23U, for which the self-cleavage was 0.25.

With G7A A57G, the self-cleavage came to 0.12.

Consider G6U A15U, for which the self-cleavage stood at 0.41.

For the variant G6U A15C, the self-cleavage turned out to be 0.19.

As for A5U G36A, the self-cleavage turned out to be 0.39.

As to G6A G9A, the self-cleavage was 0.25.

Regarding G6A G9C, the self-cleavage was 0.07.

For A5U G53A, the self-cleavage is 1.14.

In the case of A5U U25A, the self-cleavage came out at 0.26.

As to A5U U25C, the self-cleavage was found to be 0.41.

G6C C62U: the self-cleavage was 0.2.

G6A C38U: the self-cleavage came out at 0.3.

Turning to G6A C38A, the self-cleavage amounted to 0.1.

For G7A A56U, the self-cleavage is 0.52.

Turning to G7A A56G, the self-cleavage came to 0.15.

Take G6A G46U: the self-cleavage is 0.32.

Turning to G6A U66C, the self-cleavage was determined as 0.29.

Regarding G6C U74C, the self-cleavage was 0.67.

Turning to G6U A21G, the self-cleavage was 0.29.

On to G6U A21C, for which the self-cleavage worked out at 0.17.

Regarding G7A C14A, the self-cleavage came to 0.31.

In the case of G6A U80C, the self-cleavage was determined as 0.45.

With G6A U80A, the self-cleavage stood at 0.53.

Take G6A U58C: the self-cleavage turned out to be 0.14.

On to G6A U58G, for which the self-cleavage came to 0.29.

For the variant G6A U58A, the self-cleavage was 0.27.

In the case of G7A A13G, the self-cleavage came to 0.3.

On to G6A C37U, for which the self-cleavage was 0.2.

Turning to G6U C59U, the self-cleavage was 0.09.

For the variant G6A G10A, the self-cleavage was determined as 0.41.

Turning to G6A G10C, the self-cleavage worked out at 0.23.

With G6C G42A, the self-cleavage is 0.31.

With A5U G8C, the self-cleavage came to 0.1.

For A5U G8A, the self-cleavage is 0.12.

Consider G6A G63A, for which the self-cleavage was found to be 0.34.

As to G6U C32U, the self-cleavage was determined as 0.08.

For the variant G6U G7A, the self-cleavage was found to be 0.33.

For G6C A35U, the self-cleavage was 0.3.

Consider G7A, for which the self-cleavage came out at 0.25.

On to G6A G16A, for which the self-cleavage was determined as 0.29.

As for G6A U51C, the self-cleavage stood at 0.49.

G6A U51A: the self-cleavage came to 0.37.

For G6A G36A, the self-cleavage stood at 0.19.

With G6A A77G, the self-cleavage stood at 0.45.

In the case of G6A A77C, the self-cleavage was 0.44.

On to G6A A77U, for which the self-cleavage is 0.34.

Turning to A5U G63A, the self-cleavage was 1.06.

On to G6A A28C, for which the self-cleavage was 0.15.

In the case of G6A A28U, the self-cleavage was determined as 0.4.

G6A A28G: the self-cleavage turned out to be 0.29.

Turning to G6U G9A, the self-cleavage was 0.4.

For G6U G73A, the self-cleavage was determined as 0.57.

Take G6A C79A: the self-cleavage is 0.38.

As for G6A C79U, the self-cleavage was 0.55.

With G7A A21G, the self-cleavage was 0.33.

Take G6U A57G: the self-cleavage came out at 0.43.

G6C U72A: the self-cleavage is 0.18.

Take G6C A20G: the self-cleavage came to 0.44.

On to G6U U49C, for which the self-cleavage amounted to 0.22.

Turning to G6U U49A, the self-cleavage is 0.38.

G6A A45G: the self-cleavage came out at 0.14.

As to G6A A45U, the self-cleavage is 0.38.

As for G6C C27U, the self-cleavage was determined as 0.33.

Regarding G6A U31A, the self-cleavage came to 0.21.

For the variant G6A U31C, the self-cleavage turned out to be 0.34.

G6A U72A: the self-cleavage is 0.2.

As to G6A U72C, the self-cleavage is 0.4.

On to G6A U72G, for which the self-cleavage stood at 0.27.

Take A5U U41C: the self-cleavage was 0.98.

As to A5U U41A, the self-cleavage is 0.33.

In the case of G6U U43C, the self-cleavage was found to be 0.32.

For G6A C32A, the self-cleavage was found to be 0.26.

On to A5U C79U, for which the self-cleavage stood at 1.24.

As to G6C U25A, the self-cleavage came out at 0.5.

Turning to A5U C62U, the self-cleavage turned out to be 0.22.

For the variant A5U C62G, the self-cleavage stood at 0.49.

As to G6A U41C, the self-cleavage stood at 0.31.

G6A U41G: the self-cleavage was found to be 0.18.

For G6A U41A, the self-cleavage stood at 0.26.

Turning to G6U A18U, the self-cleavage was determined as 0.12.

In the case of G6U A18C, the self-cleavage is 0.14.

With G6U A47U, the self-cleavage was 0.17.

On to G6U A47G, for which the self-cleavage was found to be 0.36.

For G6C G19A, the self-cleavage was 0.48.

In the case of G6C G19U, the self-cleavage was found to be 0.2.

For the variant G6A U60A, the self-cleavage came out at 0.33.

As to G6A U60C, the self-cleavage is 0.27.

As to G6A U67C, the self-cleavage worked out at 0.32.

On to G6A U67A, for which the self-cleavage amounted to 0.4.

For the variant G6A A64G, the self-cleavage turned out to be 0.27.

With G6A A64U, the self-cleavage amounted to 0.2.

With G6C U41C, the self-cleavage was 0.49.

For the variant A5U G16U, the self-cleavage amounted to 0.66.

A5U G16A: the self-cleavage was 1.05.

G6A U25C: the self-cleavage was 0.27.

Consider G6A U25G, for which the self-cleavage came to 0.47.

As to G6U A75G, the self-cleavage is 0.09.

On to G6A G24U, for which the self-cleavage turned out to be 0.23.

On to G6A G24A, for which the self-cleavage came out at 0.34.

Consider A5U G33C, for which the self-cleavage came out at 0.16.

A5U G33A: the self-cleavage was 0.27.

Consider G6A U49A, for which the self-cleavage turned out to be 0.08.

In the case of G6A U49C, the self-cleavage turned out to be 0.15.

G6A C12U: the self-cleavage amounted to 0.59.

Take G6A C12A: the self-cleavage was determined as 0.39.
